{"source": "patent US20230407373A1", "about": "(priority 2020, published 2023)", "key": {"gRNA of HCoV-OC43": {"system": "gRNA of HCoV-OC43", "assay_type": "binding", "details": "for target (spectral count) / background (spectral count): type g_36_m, 36 hpi, Probe I; for target (spectral count): HCoV-OC43-infected HCT-8 cells; for background (spectral count): uninfected-probe control; for target (spectral count, OC43 Probe I RNP capture) / background (spectral count, no-probe control): type n_48_v: 48 hours post-infection; for target (spectral count, OC43 Probe I RNP capture): infected cells, unweighted spectral count; for background (spectral count, no-probe control): no-probe control on infected cells"}, "HCoV-OC43 gRNA and sgRNA": {"system": "HCoV-OC43 gRNA and sgRNA", "assay_type": "binding", "details": "for target (unweighted spectral count, OC43 Probe II capture): FDR<10%; for target (unweighted spectral count, OC43 Probe II) / background (unweighted spectral count, no-probe control): type n_48_v, 48 hpi; for target (unweighted spectral count, OC43 Probe II): OC43 Probe II capture on infected cells; for background (unweighted spectral count, no-probe control): no-probe control on infected cells"}}, "note": "Read-outs that look alike come from different tables or passages of the source.", "data": [{"molecule": "RBM15: host protein, UniProt Q96T37 (protein, UniProt Q96T37 1-977, looked up) RNA-binding protein 15: MRTAGRDPVPRRSPRWRRAVPLCETSAGRRVTQLRGDDLRRPATMKGKERSPVKAKRSRGGEDSTSRGERSKKLGGSGGSNGSSSGKTDSGGGSRRSLHLDKSSSRGGSREYDTGGGSSSSRLHSYSSPSTKNSSGGGESRSSSRGGGGESRSSGAASSAPGGGDGAEYKTLKISELGSQLSDEAVEDGLFHEFKRFGDVSVKISHLSGSGSGDERVAFVNFRRPEDARAAKHARGRLVLYDRPLKIEAVYVSRRRSRSPLDKDTYPPSASVVGASVGGHRHPPGGGGGQRSLSPGGAALGYRDYRLQQLALGRLPPPPPPPLPRDLERERDYPFYERVRPAYSLEPRVGAGAGAAPFREVDEISPEDDQRANRTLFLGNLDITVTESDLRRAFDRFGVITEVDIKRPSRGQTSTYGFLKFENLDMSHRAKLAMSGKIIIRNPIKIGYGKATPTTRLWVGGLGPWVPLAALAREFDRFGTIRTIDYRKGDSWAYIQYESLDAAHAAWTHMRGFPLGGPDRRLRVDFADTEHRYQQQYLQPLPLTHYELVTDAFGHRAPDPLRGARDRTPPLLYRDRDRDLYPDSDWVPPPPPVRERSTRTAATSVPAYEPLDSLDRRRDGWSLDRDRGDRDLPSSRDQPRKRRLPEESGGRHLDRSPESDRPRKRHCAPSPDRSPELSSSRDRYNSDNDRSSRLLLERPSPIRDRRGSLEKSQGDKRDRKNSASAERDRKHRTTAPTEGKSPLKKEDRSDGSAPSTSTASSKLKSPSQKQDGGTAPVASASPKLCLAWQGMLLLKNSNFPSNMHLLQGDLQVASSLLVEGSTGGKVAQLKITQRLRLDQPKLDEVTRRIKVAGPNGYAILLAVPGSSDSRSSSSSAASDTATSTQRPLRNLVSYLKQKQAAGVISLPVGGNKDKENTGVLHAFPPCEFSQQFLDSPAKALAKSEEDYLVMIIVRGFGFQIGVRYENKKRENLALTLL", "values": [{"measurement": "target (spectral count)", "setting": "gRNA of HCoV-OC43", "value": 9}, {"measurement": "background (spectral count)", "setting": "gRNA of HCoV-OC43", "value": 1}, {"measurement": "target (spectral count, OC43 Probe I RNP capture)", "setting": "gRNA of HCoV-OC43", "value": 14}, {"measurement": "background (spectral count, no-probe control)", "setting": "gRNA of HCoV-OC43", "value": 1}, {"measurement": "target (unweighted spectral count, OC43 Probe II capture)", "setting": "HCoV-OC43 gRNA and sgRNA; 24 hpi, type n_24_v, tested against no-probe control", "value": 5}, {"measurement": "target (unweighted spectral count, OC43 Probe II)", "setting": "HCoV-OC43 gRNA and sgRNA", "value": 11}, {"measurement": "background (unweighted spectral count, no-probe control)", "setting": "HCoV-OC43 gRNA and sgRNA", "value": 1}]}, {"molecule": "HNRNPAO: host protein, UniProt Q13151 (protein, UniProt Q13151 1-305, looked up) Heterogeneous nuclear …: MENSQLCKLFIGGLNVQTSESGLRGHFEAFGTLTDCVVVVNPQTKRSRCFGFVTYSNVEEADAAMAASPHAVDGNTVELKRAVSREDSARPGAHAKVKKLFVGGLKGDVAEGDLIEHFSQFGTVEKAEIIADKQSGKKRGFGFVYFQNHDAADKAAVVKFHPIQGHRVEVKKAVPKEDIYSGGGGGGSRSSRGGRGGRGRGGGRDQNGLSKGGGGGYNSYGGYGGGGGGGYNAYGGGGGGSSYGGSDYGNGFGGFGSYSQHQSSYGPMKSGGGGGGGGSSWGGRSNSGPYRGGYGGGGGYGGSSF", "values": [{"measurement": "target (spectral count)", "setting": "gRNA of HCoV-OC43", "value": 15}, {"measurement": "background (spectral count)", "setting": "gRNA of HCoV-OC43", "value": 2}]}, {"molecule": "RIAS: host protein, UniProt P31483 (protein, UniProt P31483 1-386, looked up) Cytotoxic granule associated …: MEDEMPKTLYVGNLSRDVTEALILQLFSQIGPCKNCKMIMDTAGNDPYCFVEFHEHRHAAAALAAMNGRKIMGKEVKVNWATTPSSQKKDTSSSTVVSTQRSQDHFHVFVGDLSPEITTEDIKAAFAPFGRISDARVVKDMATGKSKGYGFVSFFNKWDAENAIQQMGGQWLGGRQIRTNWATRKPPAPKSTYESNTKQLSYDEVVNQSSPSNCTVYCGGVTSGLTEQLMRQTFSPFGQIMEIRVFPDKGYSFVRFNSHESAAHAIVSVNGTTIEGHVVKCYWGKETLDMINPVQQQNQIGYPQPYGQWGQWYGNAQQIGQYMPNGWQVPAYGMYGQAWNQQGFNQTQSSAPWMGPNYGVQPPQGQNGSMLPNQPSGYRVAGYETQ", "values": [{"measurement": "target (spectral count)", "setting": "gRNA of HCoV-OC43", "value": 10}, {"measurement": "background (spectral count)", "setting": "gRNA of HCoV-OC43", "value": 1}]}, {"molecule": "UPF1: host protein, UniProt Q92900 (protein, UniProt Q92900 1-1129, looked up) Regulator of nonsense …: MSVEAYGPSSQTLTFLDTEEAELLGADTQGSEFEFTDFTLPSQTQTPPGGPGGPGGGGAGGPGGAGAGAAAGQLDAQVGPEGILQNGAVDDSVAKTSQLLAELNFEEDEEDTYYTKDLPIHACSYCGIHDPACVVYCNTSKKWFCNGRGNTSGSHIVNHLVRAKCKEVTLHKDGPLGETVLECYNCGCRNVFLLGFIPAKADSVVVLLCRQPCASQSSLKDINWDSSQWQPLIQDRCFLSWLVKIPSEQEQLRARQITAQQINKLEELWKENPSATLEDLEKPGVDEEPQHVLLRYEDAYQYQNIFGPLVKLEADYDKKLKESQTQDNITVRWDLGLNKKRIAYFTLPKTDSGNEDLVIIWLRDMRLMQGDEICLRYKGDLAPLWKGIGHVIKVPDNYGDEIAIELRSSVGAPVEVTHNFQVDFVWKSTSFDRMQSALKTFAVDETSVSGYIYHKLLGHEVEDVIIKCQLPKRFTAQGLPDLNHSQVYAVKTVLQRPLSLIQGPPGTGKTVTSATIVYHLARQGNGPVLVCAPSNIAVDQLTEKIHQTGLKVVRLCAKSREAIDSPVSFLALHNQIRNMDSMPELQKLQQLKDETGELSSADEKRYRALKRTAERELLMNADVICCTCVGAGDPRLAKMQFRSILIDESTQATEPECMVPVVLGAKQLILVGDHCQLGPVVMCKKAAKAGLSQSLFERLVVLGIRPIRLQVQYRMHPALSAFPSNIFYEGSLQNGVTAADRVKKGFDFQWPQPDKPMFFYVTQGQEEIASSGTSYLNRTEAANVEKITTKLLKAGAKPDQIGIITPYEGQRSYLVQYMQFSGSLHTKLYQEVEIASVDAFQGREKDFIILSCVRANEHQGIGFLNDPRRLNVALTRARYGVIIVGNPKALSKQPLWNHLLNYYKEQKVLVEGPLNNLRESLMQFSKPRKLVNTINPGARFMTTAMYDAREAIIPGSVYDRSSQGRPSSMYFQTHDQIGMISAGPSHVAAMNIPIPFNLVMPPMPPPGYFGQANGPAAGRGTPKGKTGRGGRQKNRFGLPGPSQTNLPNSQASQDVASQPFSQGALTQGYISMSQPSQMSQPGLSQPELSQDSYLGDEFKSQIDVALSQDSTYQGERAYQHGGVTGLSQY", "values": [{"measurement": "target (spectral count, OC43 Probe I RNP capture)", "setting": "gRNA of HCoV-OC43", "value": 13}, {"measurement": "background (spectral count, no-probe control)", "setting": "gRNA of HCoV-OC43", "value": 1}, {"measurement": "target (unweighted spectral count, OC43 Probe II capture)", "setting": "HCoV-OC43 gRNA and sgRNA; 36 hpi, type n_36_v, tested against no-probe control", "value": 16}, {"measurement": "target (unweighted spectral count)", "setting": "HCoV-OC43 gRNA and sgRNA; OC43 Probe II, 24 hpi (type n_24_v), infected cells, tested against no-probe control", "value": 8}, {"measurement": "target (unweighted spectral count, OC43 Probe II)", "setting": "HCoV-OC43 gRNA and sgRNA", "value": 16}, {"measurement": "background (unweighted spectral count, no-probe control)", "setting": "HCoV-OC43 gRNA and sgRNA", "value": 1}, {"measurement": "target (spectral count)", "setting": "HCoV-OC43 gRNA and sgRNA; type s_36_m, HCoV-OC43-infected HCT-8 cells, 36 hpi, Probe II", "value": 16}, {"measurement": "background (spectral count)", "setting": "HCoV-OC43 gRNA and sgRNA; type s_36_m, uninfected-probe control, 36 hpi, Probe II", "value": 1}]}, {"molecule": "TECR: host protein, UniProt Q9NZ01 (protein, UniProt Q9NZ01 1-308, looked up) Very-long-chain enoyl-CoA …: MKHYEVEILDAKTREKLCFLDKVEPHATIAEIKNLFTKTHPQWYPARQSLRLDPKGKSLKDEDVLQKLPVGTTATLYFRDLGAQISWVTVFLTEYAGPLFIYLLFYFRVPFIYGHKYDFTSSRHTVVHLACICHSFHYIKRLLETLFVHRFSHGTMPLRNIFKNCTYYWGFAAWMAYYINHPLYTPPTYGAQQVKLALAIFVICQLGNFSIHMALRDLRPAGSKTRKIPYPTKNPFTWLFLLVSCPNYTYEVGSWIGFAIMTQCLPVALFSLVGFTQMTIWAKGKHRSYLKEFRDYPPLRMPIIPFLL", "values": [{"measurement": "target (spectral count)", "setting": "gRNA of HCoV-OC43", "value": 9}, {"measurement": "background (spectral count)", "setting": "gRNA of HCoV-OC43", "value": 1}]}]}
